In test [1] the target is T1, IkBa peptide [SEQ ID No. 1] (Homo sapiens, UniProt P25963).
T1 construct: two phosphoserines in the DSGLDS motif (chemical modification); purchased New England Peptide, Fitchburg Mass; host or cells: chemical synthesis
Briefly: Phosphopeptide binding assay, peptide-BSA coated IPR plate. An excerpt: A phosphopeptide derived from the IkBa degradation motif (SEQ ID NO: 1) and a phosphopeptide derived from c-Myc (SEQ ID NO: 4) were chemically synthesized (New England Peptide, Fitchburg Mass.) with the following sequences respectively:
A maleimide pre-activated BSA (Pierce, Pittsburgh Pa.), which contains estimated 17 active maleimide groups on the protein surface, was used as the protein carrier, and was supplied as a lyophilized preparation. Coupling of the IkBa peptide (SEQ ID NO: 1) to the pre-activated BSA was carried out with 2 mg BSA (30 nmol) and 17 equivalents of the 25 residue phosphopeptide in 400 μl PBS. The reaction was terminated with 2 mM […] after incubation at room temperature for 30 minutes. The peptide:BSA conjugate was then purified on PD-10 gel filtration column to remove uncoupled peptide and analyzed with SDS PAGE to monitor the coupling reaction. […] After coupling and purification, the column fractions containing the peptide:BSA conjugates were pooled and the protein concentration of the pooled samples was determined by BCA assay (Pierce, Pittsburgh Pa.). NaN3, (0.02%) was added to the final peptide:BSA conjugate sample for long term storage at 4° C. […]
Two βTRCP genes, βTRCP1 and βTRCP2, are present in the human genome on chromosome 5 and 10, respectively. […] The ECL signals were measured using an imaging plate reader (IPR).

The target of test [2] is T2, Myc peptide (SEQ ID NO: 4) (Homo sapiens, UniProt P01106).
T2 construct: phosphothreonine (T58) and phosphoserine (S62) (chemical modification); purchased New England Peptide, Fitchburg Mass; host or cells: chemical synthesis
T2 sequence (P01106 with tags, fused parts or gaps limits assumed): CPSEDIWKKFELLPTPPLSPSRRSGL
Briefly: 96-well screen for phosphopeptide binding proteins, 7-spot IPR plates. Conditions: two steps of normalization; top 9 clones. The procedure: A screen was conducted using 7-spot IPR plates. The 7 spot NPT IPR plates are described in more detail in copending Provisional Application No. 60/301,932 (entitled “Assay Plates, Reader Systems and Methods for Luminescence Test Measurements”, filed on Jun. 29, 2001, hereby incorporated by reference) and particularly in the description of Plate Type D in Example 6.1 (NPT IPR plate) and U.S. application Ser. Nos. 10/185,274 and 10/185,363, filed Jun. 28, 2002, each hereby incorporated by reference. These plates consist of a 96 wells with 7 zones (spots) for the immobilization of proteins or other reagents. Each spot was coated with BSA conjugated to either a single phosphopeptide or multiple phosphopeptides.
The plates were prepared essentially as described in example 12. The seven spots supported, respectively, the following BSA conjugates IkB, pY992, pY1068, pY1148, Myc, “A”, and “6-P”. […]
For the assay, 4 ul from TnT reaction product described above were added to the coated plate containing 50 μl of binding buffer supplemented with 50 ng/well Ru-Streptavidin. […] The ECL signals were measured using an imaging plate reader (IPR). The raw data from the IPR reader was then normalized using two steps of normalization. […] These 50 lowest values were averaged and divided into each signal for that spot to generate a signal value which could be compared readily between the peptide-conjugate spots. […]

Test [3] deals with T3, EGFR (Homo sapiens, UniProt P00533).
T3 construct: autophosphorylated tyrosines (self-phosphorylated with ATP before use); purchased Sigma Chemical Co, MO
Briefly: EGFR binding assay, bound EGFR detected with TAG labeled anti-EGFR.

For test [4], the target named is T4, EGFR-pY992 (SEQ ID NO: 5) (Homo sapiens, UniProt P00533).
T4 construct: phosphotyrosine at Tyr992 (chemical modification); purchased New England Peptide, Fitchburg Mass; host or cells: chemical synthesis
Nature of the test: Single-well 4-spot assay for multiple peptide-protein interactions. The class given is binding. As to conditions: 4-spot plate. The source says: Four phosphopeptides and their cognate binding proteins (Table 14) were selected for an integrated assay of multiple peptide-protein interaction in 4-spot Multi-Array plates. The IkBa-24pp peptide and its binding protein, βTRCP, are described in Example 10. […] These phosphotyrosine containing peptides are recognized by different adaptor or effecter proteins of the receptor tyrosine kinase signaling pathway.
These four peptides were coupled to BSA carrier protein through cystine residue. After purification on PD-10 gel filtration columns, the peptide-BSA conjugates were then deposited on the assay domains of a 4-spot multi-array IPR plate (i.e., in one of the four exposed regions of working electrode defined by the dielectric layer) with an automated micro-dispensing system (Bio-Dot Dispenser, Bio-Dot, Irvine Calif.). […] These plates are dried then used or stored under desiccated conditions. A few hours prior to usage the plates were rehydrated and blocked with 3% BSA in PBS. […] The in vitro translated and biotin-labeled proteins were then assayed in the 4-spot multi-array IPR plates under conditions described in Example 10.

T1 sequence (P25963 with tags, fused parts or gaps limits assumed): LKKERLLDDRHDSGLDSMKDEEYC

B1: 4237375: IMAGE clone protein: βTRCP2 (protein)
chain: MEPDSVIEDKTIELMCSVPRSLWLGCANLVESMCALSCLQSMPSVRCLQISNGTSSVIVSRKRPSEGNYQKEKDLCIKYFDQWSESDQVEFVEHLISRMCHYQHGHINSYLKPMLQRDFITALPEQGLDHIAENILSYLDARSLCAAELVCKEWQRVISEGMLWKKLIERMVRTDPLWKGLSERRGWDQYLFKNRPTDGPPNSFYRSLYPKIIQDIETIESNWRCGRHNLQRIQCRSENSKGVYCLQYDDEKIISGLRDNSIKIWDKTSLECLKVLTGHTGSVLCLQYDERVIVTGSSDSTVRVWDVNTGEVLNTLIHHNEAVLHLRFSNGLMVTCSKDRSIAVWDMASATDITLRRVLVGHRAAVNVVDFDDKYIVSASGDRTIKVWSTSTCEFVRTLNGHKRGIACLQYRDRLVVSGSSDNTIRLWDIECGACLRVLEGHEELVRCIRFDNKRIVSGAYDGKIKVWDLQAALDPRAPASTLCLRTLVEHSGRVFRLQFDEFQIISSSHDDTILIWDFLNVPPSAQNETRSPSRTYTYISR
Regarding B1, in test [1], the “Average ECL signal, IkBa peptide [SEQ ID No. 1]” value is listed as 21501. Further, the “normalized ECL signal, Myc spot” value in test [2] turned out to be 10.

B2: 4419252: IMAGE clone protein: PLCγ (protein)
chain: MAGAASPCANGCGPGAPSDAEVLHLCRSLEVGTVMTLFYSKKSQRPERKTFQVKLETRQITWSRGADKIEGAIDIREIKEIRPGKTSRDFDRYQEDPAFRPDQSHCFVILYGMEFRLKTLSLQATSEDEVNMWIKGLTWLMEDTLQAPTPLQIERWLRKQFYSVDRNREDRISAKDLKNMLSQVNYRVPNMRFLRERLTDLEQRSGDITYGQFAQLYRSLMYSAQKTMDLPFLEASTLRAGERPELCRVSLPEFQQFLLDYQGELWAVDRLQVQEFMLSFLRDPLREIEEPYFFLDEFVTFLFSKENSVWNSQLDAVCPDTMNNPLSHYWISSSHNTYLTGDQFSSESSLEAYARCLRMGCRCIELDCWDGPDGMPVIYHGHTLTTKIKFSDVLHTIKEHAFVASEYPVILSIEDHCSIAQQRNMAQYFKKVLGDTLLTKPVEISADGLPSPNQLKRKILIKHKKLAEGSAYEEVPTSMMYSENDISNSIKNGILYLEDPVNHEWYPHYFVLTSSKIYYSEETSSDQGNEDEEEPKEVSSSTELHSNEKWFHGKLGAGRDGRHIAERLLTEYCIETGAPDGSFLVRESETFVGDYTLSFWRNGKVQHCRIHSRQDAGTPKFFLTDNLVFDSLYDLITHYQQVPLRCNEFEMRLSEPVPQTNAHESKEWYHASLTRAQAEHMLMRVPRDGAFLVRKRNEPNSYAISFRAEGKIKHCRVQQEGQTVMLGNSEFDSLVDLISYYEKHPLYRKMKLRYPINEEALEKIGTAEPDYGALYEGRNPGFYVEANPMPTFKCAVKALFDYKAQREDELTFIKSAIIQNVEKQEGGWWRGDYGGKKQLWFPSNYVEEMVNPVALEPEREHLDENSPLGDLLRGVLDVPACQIAIRPEGKNNRLFVFSISMASVAHWSLDVAADSQEELQDWVKKIREVAQTADARLTEGKIMERRKKIALELSELVVYCRPVPFDEEKIGTERACYRDMSSFPETKAEKYVNKAKGKKFLQYNRLQLSRIYPKGQRLDSSNYDPLPMWICGSQLVALNFQTPDKPMQMNQALFMTGRHCGYVLQPSTMRDEAFDPFDKSSLRGLEPCAISIEVLGARHLPKNGRGIVCPFVEIEVAGAEYDSTKQKTEFVVDNGLNPVWPAKPFHFQISNPEFAFLRFVVYEEDMFSDQNFLAQATFPVKGLKTGYRAVPLKNNYSEDLELASLLIKIDIFPAKENGDLSPFSGTSLRERGSDASGQLFHGRAREGSFESRYQQPFEDFRISQEHLADHFDSRERRAPRRTRVNGDNRL
As for B2, the ECL signal is on record as 30,389 in test [3] (+EGFR) and 2,271 in test [3] (no EGFR). Besides, in test [4], the “ECL signal, spot 4 EGFR-pY992” value was 1404.

The values above are taken from patent publication US7063946B2, “Methods, reagents, kits and apparatus for protein function analysis” (Meso Scale Technologies, LLC., priority 2001, dated 2006).
